Test [1] addresses Fc-0447 1-60 (human) (UniProt Q9UBP8). Description: ELISA, Fab plate on Fc-0447 1-60. A general note: ELISA stands for enzyme-linked immunosorbent assay.
Test [2] concerns the target T1, recombinant Fc-KAAG1 fusion protein (full-length human KAAG1 fused to human Fc, from pYD5-0447 in 293E cells) (human, UniProt Q9UBP8 1-84, biotinylated with NHS-biotin for the ELISA (sites not given)).
T1 construct: Order of parts follows the printed name Fc-KAAG1; also called recombinant KAAG1; not shown: its limits and the linker to KAAG
T1 sequence: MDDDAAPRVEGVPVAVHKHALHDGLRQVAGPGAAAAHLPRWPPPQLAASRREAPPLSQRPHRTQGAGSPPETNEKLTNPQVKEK
Description: ELISA on recombinant Fc-KAAG1. How it is done: (§1) The 96-well master plate of monoclonal preparations contained different concentrations of purified anti-KAAG1 Fabs in each well. A second stock master plate was prepared by diluting the Fabs to a final concentration of 10 μg/ml from which all subsequent dilutions were performed for ELISA measurements. To carry out the binding of Fc-KAAG1 to the monoclonal preparations, the Fc-KAAG1 was biotinylated with NHS-biotin (Pierce, Rockford, Ill.) and 10 ng/well was coated in a streptavidin 96-well plate. One nanogram of each Fab monoclonal preparation was added to each well and incubated at room temperature for 30 minutes. Bound antibody was detected with HRP-conjugated mouse anti-kappa light chain antibody in the presence of TMB liquid substrate (Sigma-Aldrich Canada Ltd., Oakville, ON) and readings were conducted at 450 nm in microtiter plate reader.
Expression of human IgG1s in 293E cells—The expression vectors prepared above that encoded the light and heavy chain immunoglobulins were expressed in 293E cells using the transient transfection system (Durocher et al., 2002). The methods used for co-transfecting the light and heavy chain expression vectors were described in Example 5. […] The ability of the chimeric anti-KAAG1 monoclonal antibodies to bind to recombinant Fc-KAAG1 was measured in the ELISA and compared with the original mouse Fabs. The method was described in Example 5. […]

Test [3] concerns the target T1, recombinant Fc-KAAG1 fusion protein …. Description: ELISA, 1 ng Fab/well on Fc-KAAG1 [D00012 Figure 7C]. As to the method: as §1
In test [4] the target is T2, monomeric recombinant KAAG1 (human, UniProt Q9UBP8 1-84, limits assumed).
T2 construct: Analyte of the Biacore experiment
T2 sequence: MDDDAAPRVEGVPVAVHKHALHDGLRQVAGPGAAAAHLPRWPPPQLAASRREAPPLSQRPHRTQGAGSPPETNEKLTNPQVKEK
Description: SPR (Biacore), antibody captured on anti-human Fc, monomeric KAAG1 injected, 1:1 model. As to the method:
(§2) More precise measurements were conducted using Surface Plasmon Resonance (SPR) in a Biacore instrument. Kinetic analysis was used to compare the affinity of the chimeric 3D3 with the h3D3 as well as with hybrid antibodies encompassing different permutations of the light and heavy chains (see FIG. 18B). Briefly, anti-human Fc was immobilized on the Biacore sensor chip and chimeric or h3D3 was captured on the chip. Different concentrations of monomeric recombinant KAAG1 were injected and the data were globally fitted to a simple 1:1 model to determine the kinetic parameters of the interaction.

The target in test [5] is T2, monomeric recombinant KAAG1. Description: SPR (Biacore); antibody captured on anti-human Fc, monomeric KAAG1 injected, 1:1 fit, average KD; humanized light chain, chimeric heavy chain (HC). How it is done:
as §2
(In general: In SPR one partner is held on a chip, and binding of the other changes the refractive index at the surface.)

The target in test [6] is T1, recombinant Fc-KAAG1 fusion protein …. Description: ELISA on recombinant Fc-KAAG1. This is another data set of the same source.
Test [7] concerns the target T2, monomeric recombinant KAAG1. Description: SPR (Biacore); antibody captured on anti-human Fc, monomeric KAAG1 injected, 1:1 fit, average KD; chimeric 3D3 tabulated as m3D3 in FIG. 18B. How it is done:
as §2

The target is the same in test [8]. Description: SPR (Biacore); antibody captured on anti-human Fc, monomeric KAAG1 injected, 1:1 fit, average KD; chimeric light + chimeric heavy chain co-expressed, 'CC' of the permutation set. As to the method:
as §2

The target is the same in test [9]. Description: SPR (Biacore); antibody captured on anti-human Fc, monomeric KAAG1 injected, 1:1 fit, average KD; chimeric light chain, humanized heavy chain (CH). As to the method: as §2
For test [10] the target is unchanged. Description: SPR (Biacore); antibody captured on anti-human Fc, monomeric KAAG1 injected, 1:1 fit, average KD; humanized light and heavy chains (HH). As to the method:
as §2

In test [11] the target is T3, Fc-fused truncated mutant of KAAG1 spanning amino acids 1-35 (human).
T3 construct: Made and purified like the full-length Fc-KAAG1; also called KAAG1 1-35
T3 chain: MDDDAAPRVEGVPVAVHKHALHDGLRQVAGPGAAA
Description: ELISA, Fab plate on Fc-0447 1-35.

Where “and” joins values, the source holds several entries; their conditions need not be identical. Equal entries are not always repeated. Where two headings read alike, the source gives them in different places.

B1: 3D3 mouse anti-KAAG1 Fab (Fab, V domains shown)
VH: EVQLQQSVAELVRPGASVTLSCKASGYIFTDYEIHWVKQTPVHGLEWIGVIDPETGNTAFNQKFKGKATLTADISSSTAYMELSSLTSEDSAVYYCMGYSDYWGQGTTLTVSS
VL: DIVMTQSPSSLAVSIGQKVTMNCKSSQSLLNSNFQKNFLAWYQQKPGQSPKLLIYFASTRESSIPDRFIGSGSGTDFTLTISSVQAEDLADYFCQQHYSTPLTFGAGTKLELK
notes: Recombinant mouse Fab made in E. coli; also called 3D3 Fab
One may read the EC50 (read off the curve) as the concentration that produces a half-maximal response. Consider B1, for which the OD450 came out at 1.33 OD450 in test [1] and 1.21 OD450 in [3]. Moreover, the “EC50 (read off the curve)” value in [2] was around 0.5 µg/mL.

B2: 3D3 hybrid antibody: humanized light chain expressed with the chimeric heavy chain (antibody, V domains shown)
VH: EVQLQQSVAELVRPGASVTLSCKASGYIFTDYEIHWVKQTPVHGLEWIGVIDPETGNTAFNQKFKGKATLTADISSSTAYMELSSLTSEDSAVYYCMGYSDYWGQGTTLTVSS
VL: DIVMTQSPDSLAVSLGERATINCKSSQSLLNSNFQKNFLAWYQQKPGQPPKLLIYFASTRESSVPDRFSGSGSGTDFTLTISSLQAEDVAVYYCQQHYSTPLTFGQGTKLEIKR
notes: also called HC
By koff is commonly meant the rate constant with which the complex falls apart. One may read the kon as the rate constant with which the complex forms. For orientation: Kd means the free concentration of one partner at which half of the binding sites on the other are occupied at equilibrium, for simple one-to-one binding. For B2, in [4], the Ka was determined as 3.24e+09 M⁻¹, the koff is 0.00073 s⁻¹ and the association rate constant (kon) came to 2.36e+06 M⁻¹ s⁻¹. For the same molecule, the dissociation constant (Kd) in [5] was 0.309 nM.

B3: G12 (Fab, V domains shown)
VH: EVQLQQSVAELVRPGASVTVSCKASGYIFTDYEIHWVKQTPAHGLEWIGVIDPETGNTAFNQKFKGKATLTADISSSTAYMELSSLTSEDSAVYYCMGYSDYWGQGTTLTVSS
VL: DIVMTQSPKFMSTSVGDRVSITCKASQDVGTAVAWYQQKPGQSPELLIYWTSTRHTGVPDRFSGSGSGTDFTLTISSVQAEDLADYFCQQHYSIPLTFGAGTKLELR
As for B3, the OD450 in test [3] turned out to be 1.38 OD450.

B4: 3D3 mouse-human chimeric IgG1 anti-KAAG1 monoclonal antibody (antibody, V domains shown)
VH: EVQLQQSVAELVRPGASVTLSCKASGYIFTDYEIHWVKQTPVHGLEWIGVIDPETGNTAFNQKFKGKATLTADISSSTAYMELSSLTSEDSAVYYCMGYSDYWGQGTTLTVSS
VL: DIVMTQSPSSLAVSIGQKVTMNCKSSQSLLNSNFQKNFLAWYQQKPGQSPKLLIYFASTRESSIPDRFIGSGSGTDFTLTISSVQAEDLADYFCQQHYSTPLTFGAGTKLELKA
notes: Mouse variable regions on human IgG1 and kappa constant regions, made in 293E cells; In the Biacore experiment two KD values are told for this composition, under the labels m3D3 and CC; also called chimeric 3D3; m3D3
As for B4, the “EC50 (read off the curve)” value in test [6] was around 0.4 µg/mL. For the same molecule, the Kd in test [7] worked out at 0.235 nM. For the same molecule, in [4], the Ka was 4.5e+09 M⁻¹ and 2.71e+09 M⁻¹; the Kd turned out to be 0.368 nM; the koff is 0.00065 s⁻¹ and 0.00073 s⁻¹; the on-rate constant (kon) is 2.91e+06 M⁻¹ s⁻¹ and 1.98e+06 M⁻¹ s⁻¹. Besides, the dissociation constant (Kd) in [8] stood at 0.271 nM.

B5: 3D3 hybrid antibody: chimeric light chain expressed with the humanized heavy chain (antibody, human IgG1, V domains shown)
VH: EVQLVQSGAEVKKPGASVKVSCKASGYIFTDYEIHWVRQAPGQGLEWMGVIDPETGNTAFNQKFKGRVTITADTSTSTAYMELSSLTSEDTAVYYCMGYSDYWGQGTLVTVSS
VL: DIVMTQSPSSLAVSIGQKVTMNCKSSQSLLNSNFQKNFLAWYQQKPGQSPKLLIYFASTRESSIPDRFIGSGSGTDFTLTISSVQAEDLADYFCQQHYSTPLTFGAGTKLELKA
With B5, the Kd in test [9] was 0.505 nM. In test [4], the Ka was 1.98e+09 M⁻¹, the koff stood at 0.00111 s⁻¹ and the kon is 2.2e+06 M⁻¹ s⁻¹.

B6: humanized 3D3 anti-KAAG1 antibody (human IgG1) (antibody, V domains shown)
VH: EVQLVQSGAEVKKPGASVKVSCKASGYIFTDYEIHWVRQAPGQGLEWMGVIDPETGNTAFNQKFKGRVTITADTSTSTAYMELSSLTSEDTAVYYCMGYSDYWGQGTLVTVSS
VL: DIVMTQSPDSLAVSLGERATINCKSSQSLLNSNFQKNFLAWYQQKPGQPPKLLIYFASTRESSVPDRFSGSGSGTDFTLTISSLQAEDVAVYYCQQHYSTPLTFGQGTKLEIKR
notes: The residues before them (leader) are left out on that ground; also called h3D3; HH
Regarding B6, in test [4], the Ka worked out at 2.28e+09 M⁻¹, the dissociation rate constant (koff) was 0.00111 s⁻¹ and the kon worked out at 2.53e+06 M⁻¹ s⁻¹. Also, in test [10], the dissociation constant Kd amounted to 0.439 nM.

B7: anti-KAAG1 Fab of well E10 (plate from Omniclonal library #3) (Fab, V domains shown)
VH: EVQLQQSGPELVKPGASVKISCKASGDTFTDYYMNWVKQSHGKSLEWIGDINPNYGGITYNQKFKGKATLTVDTSSSTAYMELRGLTSEDSAVYYCQAYYRNSDYWGQGTTLTVSS
VL: DIVMTQAAPSVPVTPGESVSISCRSSKSLLHSNGNTYLYWFLQRPGQSPQLLIYRMSNLASGVPDRFSGSGSGTAFTLRISRVEAEDVGVYYCMQHLEYPYTFGGGTKLEIK
On to B7, for which the OD450 in test [11] was 0.33 OD450; in test [1], -0.02 OD450; in [3], 0.02 OD450.

B8: 3C4 mouse anti-KAAG1 Fab (Fab, V domains shown)
VH: EVQLQESGPDLVKPSQSLSLTCTVTGFSITSGYGWHWIRQFPGNKLEWMGYINYDGHNDYNPSLKSRISITQDTSKNQFFLQLNSVTTEDTATYYCASSYDGLFAYWGQGTLVTVSA
VL: DIVMSQSPSSMYASLGERVTITCKASQDIHNFLNWFQQKPGKSPKTLIFRANRLVDGVPSRFSGSGSGQDYSLTISSLEFEDLGIYSCLQYDEIPLTFGAGTKLELR
notes: Recombinant mouse Fab made in E. coli; also called 3C4 Fab
Consider B8, for which the OD450 in test [1] is 0.57 OD450; in [3], 0.25 OD450.

B9: anti-KAAG1 Fab of well C2 (plate from Omniclonal library #3) (Fab, V domains shown)
VH: DVQLQESGPDLVKPSQSLSLTCTVTGFSITSGYGWHWIRQFPGNKLEWMGYISFNGDSNYNPSLKSRISITRDTSKNQFFLQLNSVTSEDTATYYCASSYDGLFAYWGQGPLVTVSA
VL: DIQMTQSPSSMYASLGERVTLTCKASQDIHNYLNWFQQKPGKSPKTLIHRANRLVAGVPSRFSGSGSGQDYSLTISSLEYEDLGIYYCLQYDAFPLTFGAGTKLELK
For the molecule B9, the results for the OD450 in [11] and in test [3] were 1.97 OD450 and 0.32 OD450, respectively.

B10: anti-KAAG1 Fab of well D1 (plate from Omniclonal library #3) (Fab, V domains shown)
VH: EVQLQESGPDLVKPSQSLSLTCTVTGFSITSGYGWHWIRQFPGDKLEWMGYISFNGDYNYNPSLKSRISITRDTSKNQFFLQLSSVTTEDTATYYCASSYDGLFAYWGQGTLVTVSA
VL: DIKMTQSPSSMYASLGERVTITCKASQDIHTYLNWFQQKPGKSPETLIYRANRLVDGVPSRFSGSGSGQDYSLTISSLEYEDMGIYYCLQYDEFPLTFGAGTKLELK
Take B10: the OD450 was 1.21 OD450 in test [11] and 0.15 OD450 in test [3].

B11: 3G10 mouse anti-KAAG1 Fab (Fab, V domains shown)
VH: EIQLQQSGPELVKPGASVKISCKASGYTFTDNYMNWVKQSHGKSLEWIGDINPYYGTTTYNQKFKGKATLTVDKSSRTAYMELRGLTSEDSAVYYCARDDWFDYWGQGTLVTVSA
VL: DVLMTQTPRSLSVSLGDQASISCRSSQSLLHSNGNTYLEWYLQKPGQPPKVLIYKVSNRFSGVPDRFSGSGSGTDFTLKISGVEAEDLGVYYCFQGSHVPLTFGAGTKLELK
notes: Recombinant mouse Fab made in E. coli; also called 3G10 Fab
In the case of B11, the OD450 in [3] was determined as 2.78 OD450.
